Experimental data reported in paper PMC10130750, “The motor domain of the kinesin Kip2 promotes microtubule polymerization at microtubule tips” (The Journal of Cell Biology, 2023).

B8: coiled-coil domain of Bik1 (Bik1-CC, residues 182–396) (domain or fragment, S. cerevisiae, UniProt P11709 182-396, looked up)
chain: DNGHMNDLNSSEVTIELREAQLTIEKLQRKQLHYKRLLDDQRMVLEEVQPTFDRYEATIQEREKEIDHLKQQLELERRQQAKQKQFFDAENEQLLAVVSQLHEEIKENEERNLSHNQPTGANEDVELLKKQLEQLRNIEDQFELHKTKWAKEREQLKMHNDSLSKEYQNLSKELFLTKPQDSSSEEVASLTKKLEEANEKIKQLEQAQAQTAVES
notes: Bik1 coiled-coil domain, S. cerevisiae CLIP-170 ortholog, residues 182–396; Dimer by SEC-MALS (51 kD); source: recombinantly expressed and purified (E. coli BL21 (DE3), IMAC, SEC)

Columns and labels:
[1] = biological target: the molecule itself; assay: SEC-MALS; 25°C; 20 mM Tris-HCl pH 7.5, 150 mM NaCl, 1 mM DTT; 4–8 mg/ml of each protein applied, single proteins and mixtures (Bik1-CC, Kip2-NMD, Kip2-NMD-ΔT)
[2] = biological target: T1, tubulin (free αβ-tubulin heterodimer) ( (bovine brain tubulin used …, UniProt Q6B856 1-445)); assay: SEC-MALS; equimolar mixture of tubulin and Kip2-MD in its apo state; 25°C; conditions: both partners purified
[3] = biological target: the molecule itself; assay: SEC-MALS; 25°C; 20 mM Hepes pH 7.4, 200 mM NaCl, 1 mM DTT; 4–8 mg/ml applied; MBP-Kip2(71-560)-mCherry or its P1^− mutant alone and mixed with tubulin
[4] = biological target: T1, tubulin (free αβ-tubulin heterodimer); assay: as above; conditions: both partners purified
[5] = biological target: B8; assay: SEC-MALS; 25°C; 20 mM Tris-HCl pH 7.5, 150 mM NaCl, 1 mM DTT; 4–8 mg/ml of each protein applied, single proteins and mixtures (Bik1-CC, Kip2-NMD, Kip2-NMD-ΔT); conditions: both partners purified
[6] = biological target: tubulin (free αβ-tubulin heterodimer) (not stated (bovine brain tubulin used for pelleting, pig brain tubulin for TIRF)) (UniProt Q6B856)
tubulin (free αβ-tubulin heterodimer) (not stated (bovine brain tubulin used for pelleting, pig brain tubulin for TIRF)), sequence (Q6B856 whole entry, looked up, one chain of several): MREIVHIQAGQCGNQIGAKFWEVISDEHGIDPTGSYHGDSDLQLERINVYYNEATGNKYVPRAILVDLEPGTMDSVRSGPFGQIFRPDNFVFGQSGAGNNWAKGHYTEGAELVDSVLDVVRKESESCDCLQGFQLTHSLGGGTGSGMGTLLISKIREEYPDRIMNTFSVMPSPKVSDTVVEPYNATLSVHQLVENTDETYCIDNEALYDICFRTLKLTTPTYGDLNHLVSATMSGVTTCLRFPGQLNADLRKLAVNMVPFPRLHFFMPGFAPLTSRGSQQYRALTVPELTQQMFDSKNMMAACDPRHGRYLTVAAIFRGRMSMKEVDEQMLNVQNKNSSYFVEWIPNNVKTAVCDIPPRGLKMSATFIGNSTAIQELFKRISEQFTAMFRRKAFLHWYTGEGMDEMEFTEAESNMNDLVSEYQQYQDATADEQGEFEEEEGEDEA

B1: Kip2-NMD-ΔT (truncated non-motor domain of Kip2, residues 504–645) (domain or fragment, S. cerevisiae, UniProt P28743 504-645, looked up)
chain: SNGNNDGDKDRTIELLRRQLEEQRRMISELKNRSNIGEPLTKSSNESTYKDIKATGNDGDPNLALMRAENRVLKYKLENCEKLLDKDVVDLQDSEIMEIVEMLPFEVGTLLETKFQGLESQIRQYRKYTQKLEDKIMALEKS
notes: Kip2 non-motor domain lacking the C-terminal tail, S. cerevisiae, residues 504–645; Dimer by SEC-MALS (34 kD); also called Kip2-NMD-∆T; source: E. coli BL21 (DE3), purified (IMAC, SEC); not shown: His6, N-terminal, cleaved
stoichiometry N [1]: 2

B2: Kip2 motor domain (Kip2-MD, residues 100–503) (domain or fragment, S. cerevisiae, UniProt P28743 100-503, looked up)
chain: TGSITVTIRPKPRSVGTSRDHVGLKSPRYSQPRSNSHHGSNTFVRDPWFITNDKTIVHEEIGEFKFDHVFASHCTNLEVYERTSKPMIDKLLMGFNATIFAYGMTGSGKTFTMSGNEQELGLIPLSVSYLFTNIMEQSMNGDKKFDVIISYLEIYNERIYDLLESGLEESGSRISTPSRLYMSKSNSNGLGVELKIRDDSQYGVKVIGLTERRCESSEELLRWIAVGDKSRKIGETDYNARSSRSHAIVLIRLTSTNVKNGTSRSSTLSLCDLAGSERATGQQERRKEGSFINKSLLALGTVISKLSADKMNSVGSNIPSPSASGSSSSSGNATNNGTSPSNHIPYRDSKLTRLLQPALSGDSIVTTICTVDTRNDAAAETMNTLRFASRAKNVALHVSKKSII
notes: Kip2 motor domain, S. cerevisiae, residues 100–503; Used in its apo state; The methods tell cleavage of the His tag only for Kip2-NMD and Kip2-NMD-ΔT; also called apo Kip2-MD; source: E. coli BL21 (DE3), purified (IMAC, SEC)
stoichiometry N [2]: 1

B3: MBP-Kip2(71-560)-mCherry (domain or fragment, S. cerevisiae, UniProt P28743 71-560, looked up)
chain: KSDPFLHPGRIRIRRSDSINNNSRKNDTYTGSITVTIRPKPRSVGTSRDHVGLKSPRYSQPRSNSHHGSNTFVRDPWFITNDKTIVHEEIGEFKFDHVFASHCTNLEVYERTSKPMIDKLLMGFNATIFAYGMTGSGKTFTMSGNEQELGLIPLSVSYLFTNIMEQSMNGDKKFDVIISYLEIYNERIYDLLESGLEESGSRISTPSRLYMSKSNSNGLGVELKIRDDSQYGVKVIGLTERRCESSEELLRWIAVGDKSRKIGETDYNARSSRSHAIVLIRLTSTNVKNGTSRSSTLSLCDLAGSERATGQQERRKEGSFINKSLLALGTVISKLSADKMNSVGSNIPSPSASGSSSSSGNATNNGTSPSNHIPYRDSKLTRLLQPALSGDSIVTTICTVDTRNDAAAETMNTLRFASRAKNVALHVSKKSIISNGNNDGDKDRTIELLRRQLEEQRRMISELKNRSNIGEPLTKSSNESTYKDIKATGN
notes: Kip2 motor domain with a first helix predicted to form part of the coiled coil, S. cerevisiae, residues 71–560; Mixed monomers and dimers by SEC-MALS (185 kD; monomer calculated 125.8 kD); also called MBP-Kip2-MD-mCherry; MBP-Kip2-MD; not shown: MBP, N-terminal, kept; mCherry, C-terminal, kept
stoichiometry N [3]: 2 | stoichiometry N [4]: 1 MBP-Kip2-MD-mCherry dimer per tubulin dimer

B4: MBP-Kip2(71-560)-P1^−-mCherry (domain or fragment, S. cerevisiae, UniProt P28743 71-560, looked up)
chain: KSDPFLHPGRIRIRRSDSINNNSRKNDTYTGSITVTIRPKPRSVGTSRDHVGLKSPRYSQPRSNSHHGSNTFVRDPWFITNDKTIVHEEIGEFKFDHVFASHCTNLEVYERTSKPMIDKLLMGFNATIFAYGMTGSGKTFTMSGNEQELGLIPLSVSYLFTNIMEQSMNGDKKFDVIISYLEIYNERIYDLLESGLEESGSRISTPSRLYMSKSNSNGLGVELAIADDSQYGVKVIGLTERRCESSEELLRWIAVGDKSRKIGETDYNARSSRSHAIVLIRLTSTNVKNGTSRSSTLSLCDLAGSERATGQQERRKEGSFINKSLLALGTVISKLSADKMNSVGSNIPSPSASGSSSSSGNATNNGTSPSNHIPYRDSKLTRLLQPALSGDSIVTTICTVDTRNDAAAETMNTLRFASRAKNVALHVSKKSIISNGNNDGDKDRTIELLRRQLEEQRRMISELKNRSNIGEPLTKSSNESTYKDIKATGN
notes: Kip2 motor domain with a first helix of the coiled coil, S. cerevisiae, residues 71–560, patch 1 (Lys294, Arg296) substituted with alanines; Mixed monomers and dimers by SEC-MALS (192 kD); also called MBP-Kip2-MD-P1^−-mCherry; MBP-Kip2-MD-P1; not shown: MBP, N-terminal, kept; mCherry, C-terminal, kept
stoichiometry N [3]: 2

B5: Kip2 non-motor domain (Kip2-NMD, residues 504–706) (domain or fragment, S. cerevisiae, UniProt P28743 504-706, looked up)
chain: SNGNNDGDKDRTIELLRRQLEEQRRMISELKNRSNIGEPLTKSSNESTYKDIKATGNDGDPNLALMRAENRVLKYKLENCEKLLDKDVVDLQDSEIMEIVEMLPFEVGTLLETKFQGLESQIRQYRKYTQKLEDKIMALEKSGHTAMSLTGCDGTEVIELQKMLERKDKMIEALQSAKRLRDRALKPLINTQQSPHPVVDNDK
notes: Kip2 non-motor domain (coiled coil and C-terminal tail), S. cerevisiae, residues 504–706; Dimer by SEC-MALS (45 kD); PreScission site between His tag and protein; also called NMD-Kip2; source: E. coli BL21 (DE3), purified (IMAC, SEC); not shown: His6, N-terminal, cleaved
stoichiometry N [1]: 2 | stoichiometry N [5]: 1 Kip2-NMD dimer per Bik1-CC dimer

B6: MBP-Kip2(1-560)-RFP (domain or fragment)
chain: MIQKMSPSLRRPSTRSSSGSSNIPQSPSVRSTSSFSNLTRNSIRSTSNSGSQSISASSTRSNSPLRSVSAKSDPFLHPGRIRIRRSDSINNNSRKNDTYTGSITVTIRPKPRSVGTSRDHVGLKSPRYSQPRSNSHHGSNTFVRDPWFITNDKTIVHEEIGEFKFDHVFASHCTNLEVYERTSKPMIDKLLMGFNATIFAYGMTGSGKTFTMSGNEQELGLIPLSVSYLFTNIMEQSMNGDKKFDVIISYLEIYNERIYDLLESGLEESGSRISTPSRLYMSKSNSNGLGVELKIRDDSQYGVKVIGLTERRCESSEELLRWIAVGDKSRKIGETDYNARSSRSHAIVLIRLTSTNVKNGTSRSSTLSLCDLAGSERATGQQERRKEGSFINKSLLALGTVISKLSADKMNSVGSNIPSPSASGSSSSSGNATNNGTSPSNHIPYRDSKLTRLLQPALSGDSIVTTICTVDTRNDAAAETMNTLRFASRAKNVALHVSKKSIISNGNNDGDKDRTIELLRRQLEEQRRMISELKNRSNIGEPLTKSSNESTYKDIKATGN
average speed of microtubule growth in dynamic microtubule assay (porcine tubulin), 2 nM Kip2-WT, fold increase over no addition [6]: > 13 fold | frequency of catastrophe in dynamic microtubule assay (porcine tubulin), 2 nM Kip2-WT, fold reduction against no addition [6]: 19 fold | length of freshly polymerized microtubules in dynamic microtubule assay (7 µM porcine tubulin, ATP), 2 nM Kip2-WT, fold over no addition [6]: 5 fold

B7: MBP-Kip2(1-560)-P1^−-RFP (domain or fragment)
chain: MIQKMSPSLRRPSTRSSSGSSNIPQSPSVRSTSSFSNLTRNSIRSTSNSGSQSISASSTRSNSPLRSVSAKSDPFLHPGRIRIRRSDSINNNSRKNDTYTGSITVTIRPKPRSVGTSRDHVGLKSPRYSQPRSNSHHGSNTFVRDPWFITNDKTIVHEEIGEFKFDHVFASHCTNLEVYERTSKPMIDKLLMGFNATIFAYGMTGSGKTFTMSGNEQELGLIPLSVSYLFTNIMEQSMNGDKKFDVIISYLEIYNERIYDLLESGLEESGSRISTPSRLYMSKSNSNGLGVELAIADDSQYGVKVIGLTERRCESSEELLRWIAVGDKSRKIGETDYNARSSRSHAIVLIRLTSTNVKNGTSRSSTLSLCDLAGSERATGQQERRKEGSFINKSLLALGTVISKLSADKMNSVGSNIPSPSASGSSSSSGNATNNGTSPSNHIPYRDSKLTRLLQPALSGDSIVTTICTVDTRNDAAAETMNTLRFASRAKNVALHVSKKSIISNGNNDGDKDRTIELLRRQLEEQRRMISELKNRSNIGEPLTKSSNESTYKDIKATGN
average growth speed of microtubules in dynamic microtubule assay (porcine tubulin), 2, 4 and 8 nM Kip2-P1^− (no speed-up at 2 nM), fold over no addition [6]: 2.9 fold | effect on catastrophe frequency in dynamic microtubule assay (porcine tubulin), 2 nM Kip2-P1^−, against the wild-type protein [6]: 10 fold

B8
stoichiometry N [1]: 2
